Source: IntAct's records for PubMed 29039417

B1: BBSome complex member BBS1 (Homo sapiens), Q8NFJ9 (parent)
chain: MAAASSSDSDACGAESNEANSKWLDAHYDPMANIHTFSACLALADLHGDGEYKLVVGDLGPGGQQPRLKVLKGPLVMTESPLPALPAAAATFLMEQHEPRTPALALASGPCVYVYKNLRPYFKFSLPQLPPNPLEQDLWNQAKEDRIDPLTLKEMLESIRETAEEPLSIQSLRFLQLELSEMEAFVNQHKSNSIKRQTVITTMTTLKKNLADEDAVSCLVLGTENKELLVLDPEAFTILAKMSLPSVPVFLEVSGQFDVEFRLAAACRNGNIYILRRDSKHPKYCIELSAQPVGLIRVHKVLVVGSTQDSLHGFTHKGKKLWTVQMPAAILTMNLLEQHSRGLQAVMAGLANGEVRIYRDKALLNVIHTPDAVTSLCFGRYGREDNTLIMTTRGGGLIIKILKRTAVFVEGGSEVGPPPAQAMKLNVPRKTRLYVDQTLREREAGTAMHRAFQTDLYLLRLRAARAYLQALESSLSPLSTTAREPLKLHAVVQGLGPTFKLTLHLQNTSTTRPVLGLLVCFLYNEALYSLPRAFFKVPLLVPGLNYPLETFVESLSNKGISDIIKVLVLREGQSAPLLSAHVNMPGSEGLAAA
partner: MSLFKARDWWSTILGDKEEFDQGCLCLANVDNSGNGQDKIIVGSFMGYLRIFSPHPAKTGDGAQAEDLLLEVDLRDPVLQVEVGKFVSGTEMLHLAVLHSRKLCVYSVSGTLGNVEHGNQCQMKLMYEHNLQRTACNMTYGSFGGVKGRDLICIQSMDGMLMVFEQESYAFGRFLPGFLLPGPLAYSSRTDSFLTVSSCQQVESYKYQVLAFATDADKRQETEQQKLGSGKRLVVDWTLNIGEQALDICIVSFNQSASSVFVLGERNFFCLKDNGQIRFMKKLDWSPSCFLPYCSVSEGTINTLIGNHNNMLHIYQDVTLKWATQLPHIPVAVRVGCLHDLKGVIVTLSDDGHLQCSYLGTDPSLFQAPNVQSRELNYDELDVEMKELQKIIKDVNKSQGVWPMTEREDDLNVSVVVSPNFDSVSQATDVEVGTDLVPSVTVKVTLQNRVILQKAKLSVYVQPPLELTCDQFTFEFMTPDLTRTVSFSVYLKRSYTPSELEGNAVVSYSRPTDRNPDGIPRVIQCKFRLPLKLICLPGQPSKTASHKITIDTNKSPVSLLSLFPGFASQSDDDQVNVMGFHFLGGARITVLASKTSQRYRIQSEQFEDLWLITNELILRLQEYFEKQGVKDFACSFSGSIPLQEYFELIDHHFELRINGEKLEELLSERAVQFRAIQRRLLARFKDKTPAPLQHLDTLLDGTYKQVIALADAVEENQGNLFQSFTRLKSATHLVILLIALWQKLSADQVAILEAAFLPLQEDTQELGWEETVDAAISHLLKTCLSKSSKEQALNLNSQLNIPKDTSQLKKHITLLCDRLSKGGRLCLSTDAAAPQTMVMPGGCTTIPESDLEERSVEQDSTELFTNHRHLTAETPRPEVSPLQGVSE

Variants of: B1
Conditions: with pthb1_human BBS9, Q3SYG4

Effect of a mutation on the interaction, with no effect:
MAAASSSDSDACGAESNEANSKWLDAHYDPMANIHTFSACLALADLHGDGEYKLVVGDLGPGGQQPRLKVLKGPLVMTESPLPALPAAAATFLMEQHEPRTPALALASGPCVYVYKNLRPYFKFSLPQLPPNPLEQDLWNQAKEDRIDPLTLKEMLESIRETAEEPLSIQSLRFLQLELSEMEAFVNQHKSNSIKRQTVITTMTTLKKNLADEDAVSCLVLGTENKELLVLDPEAFTILAKMSLPSVPVFLEVSGQFDVEFRLAAACRNGNIYILRRDSKHPKYCIELSAQPVGLIRVHKVLVVGSTQDSLHGFTHKGKKLWTVQMPAAILTMNLLEQHSRGLQAVMAGLANGEVRIYRDKALLNVIHTPDAVTSLCFGRYGREDNTLIMTTRGGGLIIKILKRTAVFVEGGSEVGPPPAQAMKLNVPRKTRLYVDQTLREREAGTAMHRAFQTDLYLLRLRAARAYLQALESSLSPLSTTAREPLKLHAVVQGLGPTFKLTLHLQNTSTTRPVLGLLVEFLYNEALYSLPRAFFKVPLLVPGLNYPLETFVESLSNKGISDIIKVLVLREGQSAPLLSAHVNMPGSEGLAAA [C520E]
MAAASSSDSDACGAESNEANSKWLDAHYDPMANIHTFSACLALADLHGDGEYKLVVGDLGPGGQQPRLKVLKGPLVMTESPLPALPAAAATFLMEQHEPRTPALALASGPCVYVYKNLRPYFKFSLPQLPPNPLEQDLWNQAKEDRIDPLTLKEMLESIRETAEEPLSIQSLRFLQLELSEMEAFVNQHKSNSIKRQTVITTMTTLKKNLADEDAVSCLVLGTENKELLVLDPEAFTILAKMSLPSVPVFLEVSGQFDVEFRLAAACRNGNIYILRRDSKHPKYCIELSAQPVGLIRVHKVLVVGSTQDSLHGFTHKGKKLWTVQMPAAILTMNLLEQHSRGLQAVMAGLANGEVRIYRDKALLNVIHTPDAVTSLCFGRYGREDNTLIMTTRGGGLIIKILKRTAVFVEGGSEVGPPPAQAMKLNVPRKTRLYVDQTLREREAGTAMHRAFQTDLYLLRLRAARAYLQALESSLSPLSTTAREPLKLHAVVQGLGPTFKLTLHLQNTSTTRPVLGLLVAFLYNEALYSLPRAFFKVPLLVPGLNYPLETFVESLSNKGISDIIKVLVLREGQSAPLLSAHVNMPGSEGLAAA [C520A]
MAAASSSDSDACGAESNEANSKWLDAHYDPMANIHTFSACLALADLHGDGEYKLVVGDLGPGGQQPRLKVLKGPLVMTESPLPALPAAAATFLMEQHEPRTPALALASGPCVYVYKNLRPYFKFSLPQLPPNPLEQDLWNQAKEDRIDPLTLKEMLESIRETAEEPLSIQSLRFLQLELSEMEAFVNQHKSNSIKRQTVITTMTTLKKNLADEDAVSCLVLGTENKELLVLDPEAFTILAKMSLPSVPVFLEVSGQFDVEFRLAAACRNGNIYILRRDSKHPKYCIELSAQPVGLIRVHKVLVVGSTQDSLHGFTHKGKKLWTVQMPAAILTMNLLEQHSRGLQAVMAGLANGEVRIYRDKALLNVIHTPDAVTSLCFGRYGREDNTLIMTTRGGGLIIKILKRTAVFVEGGSEVGPPPAQAMKLNVPRKTRLYVDQTLREREAGTAMHRAFQTDLYLLRLRAARAYLQALESSLSPLSTTAREPLKLHAVVQGLGPTFKLTLHLQNTSTTRPVLGLLVKFLYNEALYSLPRAFFKVPLLVPGLNYPLETFVESLSNKGISDIIKVLVLREGQSAPLLSAHVNMPGSEGLAAA [C520K]
MAAASSSDSDACGAESNEANSKWLDAHYDPMANIHTFSACLALADLHGDGEYKLVVGDLGPGGQQPRLKVLKGPLVMTESPLPALPAAAATFLMEQHEPRTPALALASGPCVYVYKNLRPYFKFSLPQLPPNPLEQDLWNQAKEDRIDPLTLKEMLESIRETAEEPLSIQSLRFLQLELSEMEAFVNQHKSNSIKRQTVITTMTTLKKNLADEDAVSCLVLGTENKELLVLDPEAFTILAKMSLPSVPVFLEVSGQFDVEFRLAAACRNGNIYILRRDSKHPKYCIELSAQPVGLIRVHKVLVVGSTQDSLHGFTHKGKKLWTVQMPAAILTMNLLEQHSRGLQAVMAGLANGEVRIYRDKALLNVIHTPDAVTSLCFGRYGREDNTLIMTTRGGGLIIKILKRTAVFVEGGSEVGPPPAQAMKLNVPRKTRLYVDQTLREREAGTAMHRAFQTDLYLLRLRAARAYLQALESSLSPLSTTAREPLKLHAVVQGLGPTFKLTLHLQNTSTTRPVLGLLVCALYNEALYSLPRAFFKVPLLVPGLNYPLETFVESLSNKGISDIIKVLVLREGQSAPLLSAHVNMPGSEGLAAA [F521A]
MAAASSSDSDACGAESNEANSKWLDAHYDPMANIHTFSACLALADLHGDGEYKLVVGDLGPGGQQPRLKVLKGPLVMTESPLPALPAAAATFLMEQHEPRTPALALASGPCVYVYKNLRPYFKFSLPQLPPNPLEQDLWNQAKEDRIDPLTLKEMLESIRETAEEPLSIQSLRFLQLELSEMEAFVNQHKSNSIKRQTVITTMTTLKKNLADEDAVSCLVLGTENKELLVLDPEAFTILAKMSLPSVPVFLEVSGQFDVEFRLAAACRNGNIYILRRDSKHPKYCIELSAQPVGLIRVHKVLVVGSTQDSLHGFTHKGKKLWTVQMPAAILTMNLLEQHSRGLQAVMAGLANGEVRIYRDKALLNVIHTPDAVTSLCFGRYGREDNTLIMTTRGGGLIIKILKRTAVFVEGGSEVGPPPAQAMKLNVPRKTRLYVDQTLREREAGTAMHRAFQTDLYLLRLRAARAYLQALESSLSPLSTTAREPLKLHAVVQGLGPTFKLTLHLQNTSTTRPVLGLKVCFLYNEALYSLPRAFFKVPLLVPGLNYPLETFVESLSNKGISDIIKVLVLREGQSAPLLSAHVNMPGSEGLAAA [L518K]
